Consider two molecules from publication PMC12598741 (Antibody Therapeutics, 2025).

The target in test [1] is light-chain single-domain antibody L6 (mCD16-specific VHHL). The experiment in a line: BLI. The settings on record: both partners purified.
In test [2] the target is T1, human tumor necrosis factor alpha (hTNF-α)-His (human, UniProt P01375).
T1 construct: also called hTNF-a
Nature of the test: BLI. The settings on record: both partners purified.

Usually Kd stands for the equilibrium constant for the complex coming apart. High values mean weaker binding, low ones tighter binding.

T1 sequence (P01375 whole entry): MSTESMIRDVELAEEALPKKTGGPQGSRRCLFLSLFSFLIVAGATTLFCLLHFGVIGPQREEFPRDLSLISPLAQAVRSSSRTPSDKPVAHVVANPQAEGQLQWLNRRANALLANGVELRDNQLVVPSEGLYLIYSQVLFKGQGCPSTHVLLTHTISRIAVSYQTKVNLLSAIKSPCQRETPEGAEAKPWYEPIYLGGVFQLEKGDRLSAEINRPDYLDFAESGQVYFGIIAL

B1: mouse CD16 (mCD16), his-tagged (receptor, UniProt P08508 31-215, looked up)
chain: ALPKAVVKLDPPWIQVLKEDMVTLMCEGTHNPGNSSTQWFHNGRSIRSQVQASYTFKATVNDSGEYRCQMEQTRLSDPVDLGVISDWLLLQTPQRVFLEGETITLRCHSWRNKLLNRISFFHNEKSVRYHHYKSNFSIPKANHSHSGDYYCKGSLGSTQHQSKPVTITVQDPATTSSISLVWYHT
The molecule B1 had a Kd in test [1] of 54.3 ± 1.41 nM.

B2: hIgG4 bsAb by modular replacement: golimumab (Gmab) heavy chain with L6 light chain (bispecific antibody, V domains shown)
VH: QVQLVESGGGVVQPGRSLRLSCAASGFIFSSYAMHWVRQAPGNGLEWVAFMSYDGSNKKYADSVKGRFTISRDNSKNTLYLQMNSLRAEDTAVYYCARDRGIAAGGNYYYYGMDVWGQGTTVTVSS
VL: EIVLTQSPGTLSLSPGERATLSCRASGSTFSSYTLAWYQQKPGQAPRLLIYIYSDGGRTSRATGIPDRFSGSGSGTDLTLTISRLEPEDFAVYYCNAESPFYDYDYWGKGTKVEIK
With B2, the binding result in test [2] is reported as “binds”.
